Data published in US20180335433A1, “COMPOSITIONS TARGETING PKC-THETA AND USES AND METHODS OF TREATING PKC-THETA PATHOLOGIES, ADVERSE IMMUNE RESPONSES AND DISEASES” (La Jolla Institute for Allergy and Immunology, priority 2011, published 2018).

Tests used:
[1] = system: NFAT reporter gene; experiment: NFAT luciferase reporter assay in MCC-specific T hybridoma cells; format: cell-based
Protocol: (§1) (FIG. 6A) OT-II CD4^+ T cells were infected with retrovirus expressing Myc-tagged V3 domain, V3 mutated at P330/1/4/6A (V3-4PA), or PR motif-deleted V3 (V3-ΔPR). Infected cells (green) were harvested, stimulated, and fixed. Conjugates were stained with anti-Myc plus a secondary Alexa 555-coupled antibody (orange), and anti-PKCθ plus a secondary Alexa 647-coupled antibody (red). Cells were analyzed as in FIG. 1A. (FIG. 6B) Quantitative analysis of the results shown in (FIG. 6A) from 30-50 T-APC conjugates. ** p<0.05. (FIG. 6C) MCC-specific T hybridoma cells were cotransfected with indicated vector, together with RE/AP-Luc and β-Gal reporter plasmids. Cells were stimulated and analyzed as in FIG. 1C. […] Cytokine-producing cells were analyzed by intracellular staining 8 h after restimulation. […] Normalized luciferase activity was determined in triplicates.
The CD28 response element (RE/AP)- or NFAT-luciferase (Luc) reporter genes have been described (Coudronniere, N. et al. Proc Natl Acad Sci USA 97, 3394-3399 (2000)). […] The cells were the lysed and Luc activity was quantitated and normalized to the activity of a cotransfected β-galactosidase (β-Gal) reporter gene.
To determine whether ectopic V3 expression also interfered with PKCθ-dependent TCR/CD28 signaling, the effects of V3 on activation of reporter genes and on T cell differentiation into effector Th cells were analyzed. […]

[2] = system: B6 CD4+ T cells, Th17 differentiation; experiment: In vitro Th17 differentiation of retrovirally transduced CD4+ T cells; format: cell-based, mouse; conditions: ectopic expression, Th17 differentiation conditions
Protocol: as §1, with “triplicates. […]” for “triplicates.”
Investigators have reported that the Th2 and Th17 immune responses are compromised in PKCθ^−/− mice, whereas the Th1 response remains relatively intact (Marsland, B. J. et al. J Exp Med 200, 181-189 (2004); Salek-Ardakani, S. et al. J Immunol 173, 6440-6447 (2004); Salek-Ardakani, S., et al. J Immunol 175, 7635-7641 (2005)). Therefore, ectopic expression of V3 was analyzed for inhibition of Th differentiation. […]

B1: V3 domain: amino acid 282-379 of human PKCθ with N-terminal Myc tag, expressed from pMIG retroviral vector (protein)
chain: GINQKLMAEALAMIESTQQARCLRDTEQIFREGPVEIGLPCSIKNEARPPCLPTPGKREPQGISWESPLDEVDKMCHLPEPELNKERPSLQIKLKIED
modifications: left off: small tags and cut ends
notes: amino acid 282-379 of human PKCθ with N-terminal Myc tag, expressed from pMIG retroviral vector
Q: Which “inhibition of NFAT reporter gene activity stimulated by WT PKCθ” value ([1]; coexpressed at increasing levels together with WT PKCθ) does the source give for B1 here?
A: Its value is “inhibited in a dose-dependent manner”.

Q: What about the “activation of NFAT reporter gene” value ([1]; expression of the V3 alone) of the same molecule?
A: The value was “did not activate”.

Q: And the “inhibition of Th17 differentiation” value [2]?
A: Its value is roughly 75%.
